Assays:
[1] = biological target: Gly-C2-iLID; test: confocal imaging of light-induced recruitment to GUV membranes
[2] = biological target: COPY^o2 (Atto532-stathmin-Atto647N); test: other fluorescence titration
[3] = biological target: phosphorylated COPY^o2; test: other fluorescence titration

Row | Kd [1] | KD, high affinity site [2] | KD, low affinity site [2] | k off,stath (1:1 stathmin-tubulin complex; site not named) [2] | k on,stath (1:1 stathmin-tubulin complex; site not named) [2] | stoichiometry N [2] | k off,p-stath (1:1 phosphorylated stathmin-tubulin complex; site not named) [3] | k on,p-stath (1:1 phosphorylated stathmin-tubulin complex; site not named) [3] | Substance
1 | 360 nM | – | – | – | – | – | – | – | SspB (Stringent starvation protein B) (from UniProt P0AFZ3 1-165) (natural protein)
2 | – | 30 nM | 2000 nM | 0.048 s⁻¹ | 16 s⁻¹ | 2 | 2.3 s⁻¹ | 1.8 s⁻¹ | α,β-tubulin dimers (from UniProt P02550 1-451; P02554 1-445) (complex)

Source: doi:10.1101/481887
